Patent US20260069728A1, “MULTI-TARGETING COMPOUND AND USE THEREOF” (Chengdu Shetai Medical Technology Co., Ltd., priority 2023, published 2026)
Where two headings read alike, the source gives them in different places.

Assays:
[1] = Isoelectric point (PI) measurement; type: physicochemical; conditions: unlabeled compound
[2] = tested on: SUM149PT human breast cancer cell line; experiment: Cell saturation binding assay, SUM149PT; conditions: 68Ga-labeled compound
Protocol: (1) For the cell saturation binding assay, a total of 8 radiolabeled ligand concentrations were set at intervals within the anticipated range. For each concentration, there were 3 groups: the non-inhibition group, the first single inhibition group (FAP single inhibition group), and the second single inhibition group (CXCR4/GRPR/αvβ3 single inhibition group). For each concentration and each group, 3 replicate wells were established.
(2) Cells were plated into a 24-well plate according to the cell plating procedure described above.
(3) The original culture medium was removed from the 24-well plate. Then, 400 μL of 100 mg/mL skimmed milk solution was added to each well for blocking for one hour. After removing the skimmed milk solution, each of wells was washed three times by adding 400 μL of PBS solution. Subsequently, 146 μL of FBS-free medium was added to each well. Next, the non-inhibition group received 4 μL of cold PBS per well, while the first single inhibition group and the second single inhibition group received the following additions per well according to Table 4: 2 μL of non-radiolabeled first single inhibitor solution and 2 μL of cold PBS; 2 μL of non-radiolabeled second single inhibitor solution and 2 μL of cold PBS. The plate was then incubated at room temperature for one hour.
(4) The ligands were radiolabeled with 68Ga using the labeling method described previously. Different volumes of FBS-free medium were added to formulate the radioligand systems at corresponding concentrations. Then, 50 μL of the corresponding concentration of the radioligand system was added to each well.
(5) The supernatant was removed, and the wells were washed three times with 400 μL of PBS. 200 μL of IM NaOH solution was added to each well for cell lysis. […] Each well was washed once with 400 μL of PBS solution, and the washings were sequentially added to the corresponding radioimmunoassay tubes.
(6) Radioactivity in the cells was measured using a γ counter. The equilibrium dissociation constant (KD) was obtained by fitting the curve using nonlinear regression analysis in GraphPad Prism software. KD is the drug concentration that causes half of the maximum effect (50% receptor occupancy).

[3] = Stability of radioligands in PBS buffer (radio-HPLC); type: physicochemical
Protocol: The purpose of this experiment was to test the stability of the radioligands under buffer conditions simulating the physiological environment. This stability is a prerequisite for further animal experiments.
(§1) 1. ^68Ga-SDYD01: ^68Ga-SDYD01 was added to PBS buffer (pH=7.4) and incubated at 37° C. The mixture samples were taken for radio-HPLC analysis after 0.5 hours, 1 hour, and 2 hours of incubation. The stability of ^68Ga-SDYD01 in PBS buffer: the radiochemical purities of ^68Ga-SDYD01 after incubation in PBS for 0.5 hours, 1 hour, and 2 hours were 98%, 97%, and 97%, respectively (FIG. 4).
(§2) 2. ^177Lu-SDYD01: ^177Lu-SDYD01 was added to PBS buffer (pH=7.4) and incubated at 37° C. The mixture samples were taken for radio-HPLC analysis after 24 hours, 48 hours, and 120 hours of incubation. The stability of ^177Lu-SDYD01 in PBS buffer: the radiochemical purities of ^177Lu-SDYD01 after incubation in PBS for 24 hours, 48 hours, and 120 hours were 97%, 96%, and 94%, respectively (FIG. 5).
as §1, with “^68Ga-SDYD02: ^68Ga-SDYD02” for “^68Ga-SDYD01: ^68Ga-SDYD01”, “^68Ga-SDYD02” for “^68Ga-SDYD01”, “96%, 95%” for “98%, 97%,”, “93%,” for “97%,”, “10).” for “4).”
as §2, with “^177Lu-SDYD02: ^177Lu-SDYD02” for “^177Lu-SDYD01: ^177Lu-SDYD01”, “^177Lu-SDYD02” for “^177Lu-SDYD01”, “95%, 91%” for “97%, 96%,”, “87%,” for “94%,”, “11).” for “5).”
as §1, with “1. ^68Ga-SDYD05: ^68Ga-SDYD05” for “1. ^68Ga-SDYD01: ^68Ga-SDYD01”, “of ^68Ga-SDYD05” for “of ^68Ga-SDYD01”, “98%, 96%” for “98%, 97%,”, “and 95%,” for “and 97%,”, “(FIG. 16).” for “(FIG. 4).”
as §2, with “^177Lu-SDYD05: ^177Lu-SDYD05” for “^177Lu-SDYD01: ^177Lu-SDYD01”, “^177Lu-SDYD05” for “^177Lu-SDYD01”, “97%, 96% and” for “97%,”, “96%,” for “96%, and 94%,”, “17).” for “5).”
1. ^68Ga-SDYD06: ^68Ga-SDYD06 was added to PBS buffer (pH=7.4) and incubated at 37° C. The mixture samples were taken for radio-HPLC analysis after 0.5, 1, and 2 hours of incubation. The stability of ^68Ga-SDYD06 in PBS buffer: the radiochemical purities of ^68Ga-SDYD06 after incubation in PBS for 0.5 hours, 1 hour, and 2 hours were 96%, 94% and 93%, respectively (FIG. 22).
2. ^177Lu-SDYD06: ^177Lu-SDYD06 was added to PBS buffer (pH=7.4) and incubated at 37° C. The mixture samples were taken for radio-HPLC analysis after 24 hours, 48 hours, and 120 hours of incubation.
1. ^68Ga-SDYD03: ^68Ga-SDYD03 was added to PBS buffer (pH=7.4) and incubated at 37° C. The mixture samples were taken for radio-HPLC analysis after 0.5 hours, 1 hour, and 2 hours of incubation. The stability of ^68Ga-SDYD03 PBS in PBS buffer: the radiochemical purities of ^68Ga-SDYD03 after incubation in PBS for 0.5 hours, 1 hour, and 2 hours were 96%, 96% and 95%, respectively (FIG. 27).
as §2, with “^177Lu-SDYD03: ^177Lu-SDYD03” for “^177Lu-SDYD01: ^177Lu-SDYD01”, “^177Lu-SDYD03” for “^177Lu-SDYD01”, “are 99%, 96%” for “were 97%, 96%,”, “28). […]” for “5).”

[4] = Small animal PET imaging and biodistribution study; type: in vivo, NSG mice; conditions: NSG, mouse, in vivo, iv, 7.4 MBq, total radioactivity, absolute uptake value in the tumor
Protocol: (§3) Eleven NSG mice bearing subcutaneous xenograft tumors (U87 MG cells), with tumor sizes approximately 150 mm^3, were used. The mice were intravenously injected via the tail vein with approximately 7.4 MBq of ^68Ga-labeled SDYD01, SDYD02, SDYD03. SDYD04, SDYD05, SDYD06, SDYD07, SDYD08 or SDYD07-1 compounds, or with ^[…]-labeled FAPI-04 or FAP2286 compounds as tracers. Micro PET/CT imaging was performed at 30 min, 60 min, and 120 min post-injection. Static images were acquired in 3D mode for 20 minutes. Reconstruction was performed using the OSEM3D/MAP method to obtain attenuation-corrected PET/CT fusion images.
(§4) NSG mice bearing subcutaneous xenograft tumors (U87 MG cells) were divided into 3 groups, with 11 mice in each group. They were intravenously injected via the tail vein with ^68Ga-labeled SDYD01, SDYD02, SDYD03. SDYD04, SDYD05, SDYD06. SDYD07, SDYD08, or SDYD07-1 compounds, or with ^68Ga-labeled FAPI-04 or FAP2286 compounds as tracers. Tumor-bearing mice injected with ^68Ga-labeled compounds SDYD01, SDYD02, SDYD03, SDYD04, SDYD05, SDYD06, FAPI-04, as well as 68Ga-labeled compounds FAPI-04 and FAP2286, were euthanized at 30 min. 60 min, and 120 min, respectively, for each group. Tumor-bearing mice injected with ^68Ga-labeled compounds SDYD07, SDYD08, and SDYD07-1 were euthanized at 30 min, 60 min, and 90 min, respectively, for each group. Blood, tumors, and other major organs and tissues were collected, weighed, and measured for radioactivity. After radioactive decay correction, the standardized uptake value (SUV) and percentage injected dose per gram of tissue (% ID/g) were calculated. In these figures, (a) represents the PET/CT imaging results, (b) represents the biodistribution results, and (c) represents the relative ratios of radioactive uptake in tumor versus normal tissues.

[5] = tested on: subcutaneous xenograft tumors (U87 MG cells); experiment: Small animal PET imaging and biodistribution study; type: in vivo, NSG mice; conditions: mouse, in vivo
Protocol: as §3, §4

| Structure (SMILES) | Main peak's PI [1] | KD values / binding affinity to the receptors (in words) [2] | Kd ([2]; FAPI-04 solution, read-out: KD value, First single inhibition group (FAP single inhibition)) [nM] | Kd ([2]; T140 solution (CXCR4 inhibitor), read-out: KD value, Second single inhibition group (CXCR4/GRPR/αvβ3 single inhibition)) [nM] | Kd ([2]; read-out: KD value, Non-inhibition group) [nM] | stability in PBS buffer (in words) [3] | tissue uptake at 0.5 h [4] [%ID/g] | tissue uptake at 1 h [4] [%ID/g] | radioactive uptake in the tumor sites (in words) [5] |
| --- | --- | --- | --- | --- | --- | --- | --- | --- | --- |
| CCCCCC(=O)N[C@@H]1CSCc2cc(CSCCNC(=O)[C@@H](CCCCNC(=O)CN3CCN(CC(=O)O)CCN(CC(=O)O)CCN(CC(=O)O)CC3)NC(=O)COCCOCCNC(=O)COCCOCCNC(=O)CCN3C(=O)CC(SCCNC(=O)CCC(=O)N[C@@H](CCCNC(=N)N)C(=O)N[C@@H](CCCNC(=N)N)C(=O)N[C@@H](Cc4ccc5ccccc5c4)C(=O)N[C@@H]4CSSC[C@@H](C(=O)N[C@@H](CCCNC(=N)N)C(N)=O)NC(=O)[C@H](CCCNC(N)=O)NC(=O)[C@H](CCCNC(=N)N)NC(=O)[C@H](Cc5ccc(O)cc5)NC(=O)[C@@H]5CCCN5C(=O)[C@H](CCCCN)NC(=O)[C@H](CCCCN)NC(=O)[C@H](CCCNC(N)=O)NC(=O)[C@H](Cc5ccc(O)cc5)NC4=O)C3=O)cc(c2)CSC[C@@H](C(=O)O)NC(=O)[C@H](Cc2ccccc2)NC(=O)[C@H](CCC(N)=O)NC(=O)C([C@@H](C)O)NC(=O)[C@@H]2CCCN2C(=O)[C@@H]2CCCN2C1=O (stereo partly drawn) [SDYD02] | 11.183 | relatively low KD values | 3.35 ± 0.92 | 6.3 ± 0.78 | 7.11 ± 1.17 | – | – | – | – |
| CN1C(=O)[C@@H](Cc2ccc(O)cc2)NC(=O)CNC(=O)[C@H](Cc2ccc3ccccc3c2)NC(=O)[C@H](CCCNC(=N)N)NC(=O)[C@H]1CCCNC(=O)c1ccc(CNC(=O)[C@H](CCCCNC(=O)CN2CCN(CC(=O)O)CCN(CC(=O)O)CCN(CC(=O)O)CC2)NC(=O)CCC(=O)NCCOCCOCC(=O)NCCOCCOCC(=O)N2CCN(CCCOc3ccc4nccc(C(=O)NCC(=O)N5CC(F)(F)C[C@H]5C#N)c4c3)CC2)cc1 [^68Ga-SDYD05, metal not drawn] | – | – | – | – | – | quite stable in PBS buffer | ≥ 10 | ≥ 10 | significant radioactive uptake in the tumor sites |
